B1: C1QTNF4 (aa 17–329, full-length) (ligand)
chain: not shown
B2: GFP-C1QTNF4 (aa 17–329) (ligand)
chain: not shown

Assays:
[1] = biological target: T1, Nucleolin construct R1234G (aa 285–710) (human, UniProt P19338 285-710); experiment: co-IP
[2] = biological target: T1, Nucleolin construct R1234G (aa 285–710); experiment: flow cytometry on cells

T1 sequence (P19338 285-710, stated change not applied): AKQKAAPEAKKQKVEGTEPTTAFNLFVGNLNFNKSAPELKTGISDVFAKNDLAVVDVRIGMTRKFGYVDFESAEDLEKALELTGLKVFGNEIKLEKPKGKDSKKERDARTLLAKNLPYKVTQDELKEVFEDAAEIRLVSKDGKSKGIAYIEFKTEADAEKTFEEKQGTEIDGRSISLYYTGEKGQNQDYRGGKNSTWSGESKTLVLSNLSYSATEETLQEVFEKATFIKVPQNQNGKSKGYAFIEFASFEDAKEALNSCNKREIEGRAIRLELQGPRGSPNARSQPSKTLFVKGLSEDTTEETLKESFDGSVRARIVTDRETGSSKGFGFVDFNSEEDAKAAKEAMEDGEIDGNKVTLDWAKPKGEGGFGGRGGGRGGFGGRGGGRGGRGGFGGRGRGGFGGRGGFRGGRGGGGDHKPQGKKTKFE

Row | Binder | binding result [1] | binding result [2]
1 | B1 | binds | –
2 | B2 | – | binds
